From US20250304643A1 (BAINAN BIOTECH, published 2025) come the findings set out here.

What all share (experiment): cell-based or functional assay
The target in experiment [1] is T1, human GIPR (glucose-dependent insulinotropic polypeptide receptor) (human, UniProt P48546 22-466).
T1 sequence (looked up): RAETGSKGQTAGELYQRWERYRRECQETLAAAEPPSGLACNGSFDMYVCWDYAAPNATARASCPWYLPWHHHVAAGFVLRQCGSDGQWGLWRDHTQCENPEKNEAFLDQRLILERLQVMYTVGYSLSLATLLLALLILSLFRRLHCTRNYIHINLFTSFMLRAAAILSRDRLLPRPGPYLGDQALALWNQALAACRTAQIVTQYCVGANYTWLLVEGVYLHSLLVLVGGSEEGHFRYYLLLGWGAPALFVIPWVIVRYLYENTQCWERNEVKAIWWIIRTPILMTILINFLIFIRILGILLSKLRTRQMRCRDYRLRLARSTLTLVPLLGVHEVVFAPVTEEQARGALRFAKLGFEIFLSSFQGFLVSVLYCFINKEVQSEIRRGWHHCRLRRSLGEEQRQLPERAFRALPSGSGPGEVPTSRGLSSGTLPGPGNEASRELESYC

Experiment [2] addresses human GLP-1R (GLP-1 receptor) (human, UniProt P43220 24-463).
Experiment [3] addresses T2, human GLP-2R (glucagon-like peptide-2 receptor) (human, UniProt O95838 1-553).
T2 sequence (looked up): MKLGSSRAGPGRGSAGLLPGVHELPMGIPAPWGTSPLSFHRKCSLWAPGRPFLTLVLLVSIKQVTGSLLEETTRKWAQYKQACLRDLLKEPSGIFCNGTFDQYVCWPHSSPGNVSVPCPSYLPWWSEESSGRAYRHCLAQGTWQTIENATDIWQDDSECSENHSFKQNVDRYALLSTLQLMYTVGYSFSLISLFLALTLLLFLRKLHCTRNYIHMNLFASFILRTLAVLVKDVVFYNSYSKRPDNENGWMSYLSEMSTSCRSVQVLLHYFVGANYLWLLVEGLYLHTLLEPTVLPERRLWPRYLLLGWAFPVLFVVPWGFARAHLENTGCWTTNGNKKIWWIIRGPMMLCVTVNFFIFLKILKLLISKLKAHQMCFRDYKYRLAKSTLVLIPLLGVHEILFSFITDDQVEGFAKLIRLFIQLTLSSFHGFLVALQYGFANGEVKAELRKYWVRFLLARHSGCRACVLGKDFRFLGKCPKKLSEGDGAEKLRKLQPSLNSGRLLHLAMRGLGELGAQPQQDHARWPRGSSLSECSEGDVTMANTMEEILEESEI

For experiment [4], the target named is T1, human GIPR (glucose-dependent …). The source holds these as a separate data set.

Where two headings read alike, the source gives them in different places. *1 amine or outer side, *2 acyl side, *3 side chain or, on linkers, in order; H or OH if unused. Where no end group is shown, it is not given here. Side-chain parts run from the residue outwards. [ ]: non-standard residue; d: D form. The star is where a group is joined. γGlu = O=C(O)[C@H](CCC(=O)[*:2])N[*:1]; Palmitoyl = CCCCCCCCCCCCCCCC(=O)*; Decanoyl = CCCCCCCCCC(=O)*; Aib = CC(C)(N)C(=O)O

B1: Compound no. 54 (peptide)
peptide: H[Aib]DGTFISDYK([γGlu-Decanoyl])T[Aib]LDNLAARDFINWLIQTKITGNDWKHNITQ-OH
Take B1: in experiment [1], the “cAMP assay: EC50 (nM) GIPR” value stood at 1.17 nM and the “cAMP assay: Efficacy GIPR” value amounted to 86%. In experiment [2], the “cAMP assay: EC50 (nM) GLP-1R” value amounted to 39.8 nM, the “cAMP assay: Efficacy GLP-1R” value came to 8% and the “cAMP assay: logEC50 GLP-1R” value came to 7.4.

B2: Compound no. 31 (peptide)
peptide: H[Aib]DGTFISDYK([γGlu-Decanoyl])TILDKLAARDFIEWLIATKITK-OH
modifications: N-terminus assumed
SMILES: CCCCCCCCCC(=O)N[C@@H](CCC(=O)NCCCC[C@H](NC(=O)[C@H](Cc1ccc(O)cc1)NC(=O)[C@H](CC(=O)O)NC(=O)[C@H](CO)NC(=O)[C@@H](NC(=O)[C@H](Cc1ccccc1)NC(=O)[C@@H](NC(=O)CNC(=O)[C@H](CC(=O)O)NC(=O)C(C)(C)NC(=O)[C@@H](N)Cc1c[nH]cn1)[C@@H](C)O)[C@@H](C)CC)C(=O)N[C@H](C(=O)N[C@H](C(=O)N[C@@H](CC(C)C)C(=O)N[C@@H](CC(=O)O)C(=O)N[C@@H](CCCCN)C(=O)N[C@@H](CC(C)C)C(=O)N[C@@H](C)C(=O)N[C@@H](C)C(=O)N[C@@H](CCCNC(=N)N)C(=O)N[C@@H](CC(=O)O)C(=O)N[C@@H](Cc1ccccc1)C(=O)N[C@H](C(=O)N[C@@H](CCC(=O)O)C(=O)N[C@@H](Cc1c[nH]c2ccccc12)C(=O)N[C@@H](CC(C)C)C(=O)N[C@H](C(=O)N[C@@H](C)C(=O)N[C@H](C(=O)N[C@@H](CCCCN)C(=O)N[C@H](C(=O)N[C@H](C(=O)N[C@@H](CCCCN)C(=O)O)[C@@H](C)O)[C@@H](C)CC)[C@@H](C)O)[C@@H](C)CC)[C@@H](C)CC)[C@@H](C)CC)[C@@H](C)O)C(=O)O
Regarding B2, in experiment [2], the “cAMP assay: EC50 (nM) GLP-1R” value was 39.8 nM, the “cAMP assay: Efficacy GLP-1R” value worked out at 6% and the “cAMP assay: logEC50 GLP-1R” value turned out to be 7.4.

B3: Compound no. 48 (peptide)
peptide: Palmitoyl-HADGTFISDYSTILDELAARDFINWLIQTKITKNDWKHNITQ
In the case of B3, in experiment [3], the “cAMP assay: EC50 (nM) GLP-2R” value came out at 25.1 nM, the “cAMP assay: Efficacy GLP-2R” value came to 69% and the “cAMP assay: logEC50 GLP-2R” value amounted to 7.6. For the same molecule, in experiment [1], the “cAMP assay: EC50 (nM) GIPR” value was found to be 2.82 nM and the “cAMP assay: Efficacy GIPR” value is 112%.

B4: Compound no. 52 (peptide)
peptide: Palmitoyl-HADGTFISDYSTILDNLAARDFINWLIATKITKNDWKHNITQ
Take B4: in experiment [3], the “cAMP assay: EC50 (nM) GLP-2R” value is 7.9 nM, the “cAMP assay: Efficacy GLP-2R” value was found to be 68% and the “cAMP assay: logEC50 GLP-2R” value came to 8.1. Besides, in experiment [1], the “cAMP assay: EC50 (nM) GIPR” value is 0.251 nM and the “cAMP assay: Efficacy GIPR” value worked out at 96%.

B5: Compound no. 50 (peptide)
peptide: Palmitoyl-HADGTFISDYSTILDNLAARDFIEWLIQTKITKNDWKHNITQ
Take B5: in experiment [3], the “cAMP assay: EC50 (nM) GLP-2R” value came out at 10 nM, the “cAMP assay: Efficacy GLP-2R” value came to 70% and the “cAMP assay: logEC50 GLP-2R” value amounted to 8. In experiment [1], the “cAMP assay: EC50 (nM) GIPR” value came to 0.891 nM and the “cAMP assay: Efficacy GIPR” value was 101%.

B6: Compound no. 57 (peptide)
peptide: HADGTFISDYSTILDKLAARDFINWLIQTK(C16 fatty acid)ITK
Consider B6, for which, in experiment [1], the “cAMP assay: EC50 (nM) GIPR” value came to 12.6 nM and the “cAMP assay: Efficacy GIPR” value came to 97%. Moreover, in experiment [2], the “cAMP assay: EC50 (nM) GLP-1R” value is 100 nM, the “cAMP assay: Efficacy GLP-1R” value was 73% and the “cAMP assay: logEC50 GLP-1R” value came out at 7.

B7: Compound no. 44 (peptide)
peptide: Decanoyl-H[Aib]DGTFISDYST[Aib]LDNLAARDFINWLIQTKITK-OH
SMILES: CCCCCCCCCC(=O)N[C@@H](Cc1c[nH]cn1)C(=O)NC(C)(C)C(=O)N[C@@H](CC(=O)O)C(=O)NCC(=O)N[C@H](C(=O)N[C@@H](Cc1ccccc1)C(=O)N[C@H](C(=O)N[C@@H](CO)C(=O)N[C@@H](CC(=O)O)C(=O)N[C@@H](Cc1ccc(O)cc1)C(=O)N[C@@H](CO)C(=O)N[C@H](C(=O)NC(C)(C)C(=O)N[C@@H](CC(C)C)C(=O)N[C@@H](CC(=O)O)C(=O)N[C@@H](CC(N)=O)C(=O)N[C@@H](CC(C)C)C(=O)N[C@@H](C)C(=O)N[C@@H](C)C(=O)N[C@@H](CCCNC(=N)N)C(=O)N[C@@H](CC(=O)O)C(=O)N[C@@H](Cc1ccccc1)C(=O)N[C@H](C(=O)N[C@@H](CC(N)=O)C(=O)N[C@@H](Cc1c[nH]c2ccccc12)C(=O)N[C@@H](CC(C)C)C(=O)N[C@H](C(=O)N[C@@H](CCC(N)=O)C(=O)N[C@H](C(=O)N[C@@H](CCCCN)C(=O)N[C@H](C(=O)N[C@H](C(=O)N[C@@H](CCCCN)C(=O)O)[C@@H](C)O)[C@@H](C)CC)[C@@H](C)O)[C@@H](C)CC)[C@@H](C)CC)[C@@H](C)O)[C@@H](C)CC)[C@@H](C)O
As to B7, in experiment [2], the “cAMP assay: Efficacy GLP-1R” value stood at 19%.

B8: Compound no. 58 (peptide)
peptide: HADGTFISDYSTILDKLAARDFINWLIQTKITK(C16 fatty acid)
Regarding B8, in experiment [1], the “cAMP assay: EC50 (nM) GIPR” value came to 1.41 nM and the “cAMP assay: Efficacy GIPR” value amounted to 74%.

B9: Compound no. 66 (peptide)
peptide: HGEGSFGSDMSIALDKLAARDFVNWLLQTKITD
modifications: also: C14 fatty acid at C-terminus, attachment not given here
On to B9, for which the “cAMP assay: Efficacy GIPR” value in experiment [4] came to 97%.

B10: Compound no. 49 (peptide)
peptide: Palmitoyl-HADGTFISDYSTILDNLAARDFINWLIQTKITKAEWKHAITQ
Regarding B10, in experiment [3], the “cAMP assay: EC50 (nM) GLP-2R” value came out at 35.5 nM, the “cAMP assay: Efficacy GLP-2R” value was 92% and the “cAMP assay: logEC50 GLP-2R” value was determined as 7.5. For the same molecule, in experiment [1], the “cAMP assay: EC50 (nM) GIPR” value worked out at 2.82 nM and the “cAMP assay: Efficacy GIPR” value worked out at 105%.

B11: Compound no. 11 (peptide)
peptide: HXDGTFISDYKTILDNLAARDFINWLIQTKITK
modifications: Aib at 2; K(γGlu-C16) at 11; C-terminus -OH
For the molecule B11, in experiment [2], the “cAMP assay: Efficacy GLP-1R” value was found to be 11%.

B12: Compound no. 10 (peptide)
peptide: H[Aib]DGTFK([γGlu-Palmitoyl])SDYSTILDNLAARDFINWLIQTKITK-OH
modifications: N-terminus assumed
SMILES: CCCCCCCCCCCCCCCC(=O)N[C@@H](CCC(=O)NCCCC[C@H](NC(=O)[C@H](Cc1ccccc1)NC(=O)[C@@H](NC(=O)CNC(=O)[C@H](CC(=O)O)NC(=O)C(C)(C)NC(=O)[C@@H](N)Cc1c[nH]cn1)[C@@H](C)O)C(=O)N[C@@H](CO)C(=O)N[C@@H](CC(=O)O)C(=O)N[C@@H](Cc1ccc(O)cc1)C(=O)N[C@@H](CO)C(=O)N[C@H](C(=O)N[C@H](C(=O)N[C@@H](CC(C)C)C(=O)N[C@@H](CC(=O)O)C(=O)N[C@@H](CC(N)=O)C(=O)N[C@@H](CC(C)C)C(=O)N[C@@H](C)C(=O)N[C@@H](C)C(=O)N[C@@H](CCCNC(=N)N)C(=O)N[C@@H](CC(=O)O)C(=O)N[C@@H](Cc1ccccc1)C(=O)N[C@H](C(=O)N[C@@H](CC(N)=O)C(=O)N[C@@H](Cc1c[nH]c2ccccc12)C(=O)N[C@@H](CC(C)C)C(=O)N[C@H](C(=O)N[C@@H](CCC(N)=O)C(=O)N[C@H](C(=O)N[C@@H](CCCCN)C(=O)N[C@H](C(=O)N[C@H](C(=O)N[C@@H](CCCCN)C(=O)O)[C@@H](C)O)[C@@H](C)CC)[C@@H](C)O)[C@@H](C)CC)[C@@H](C)CC)[C@@H](C)CC)[C@@H](C)O)C(=O)O
Take B12: in experiment [2], the “cAMP assay: EC50 (nM) GLP-1R” value was 100 nM, the “cAMP assay: Efficacy GLP-1R” value came to 10% and the “cAMP assay: logEC50 GLP-1R” value stood at 7.

B13: Compound no. 51 (peptide)
peptide: Palmitoyl-HADGTFISDYSTILDNLAARDFINWLIETKITKNDWKHNITQ
With B13, in experiment [3], the “cAMP assay: EC50 (nM) GLP-2R” value was 12.6 nM, the “cAMP assay: Efficacy GLP-2R” value was 66% and the “cAMP assay: logEC50 GLP-2R” value was 7.9. In addition, in experiment [1], the “cAMP assay: EC50 (nM) GIPR” value turned out to be 0.398 nM and the “cAMP assay: Efficacy GIPR” value worked out at 104%.

B14: Compound no. 53 (peptide)
peptide: Palmitoyl-HADGTFISDYST[Aib]LDNLAARDFINWLIQTKITKNDWKHNITQ
For the molecule B14, in experiment [3], the “cAMP assay: EC50 (nM) GLP-2R” value was found to be 4 nM, the “cAMP assay: Efficacy GLP-2R” value was found to be 79% and the “cAMP assay: logEC50 GLP-2R” value came out at 8.2. In experiment [1], the “cAMP assay: EC50 (nM) GIPR” value came to 0.316 nM and the “cAMP assay: Efficacy GIPR” value was 90%.
